Measured values published in PMC9352680, “A comprehensive thermodynamic model for RNA binding by the Saccharomyces cerevisiae Pumilio protein PUF4”.
Changes are numbered by the printed parent chain. Numbers in names are those of the source.

T1: PUF4 RNA-binding domain (Saccharomyces cerevisiae, UniProt P25339 537-888)
T1 sequence: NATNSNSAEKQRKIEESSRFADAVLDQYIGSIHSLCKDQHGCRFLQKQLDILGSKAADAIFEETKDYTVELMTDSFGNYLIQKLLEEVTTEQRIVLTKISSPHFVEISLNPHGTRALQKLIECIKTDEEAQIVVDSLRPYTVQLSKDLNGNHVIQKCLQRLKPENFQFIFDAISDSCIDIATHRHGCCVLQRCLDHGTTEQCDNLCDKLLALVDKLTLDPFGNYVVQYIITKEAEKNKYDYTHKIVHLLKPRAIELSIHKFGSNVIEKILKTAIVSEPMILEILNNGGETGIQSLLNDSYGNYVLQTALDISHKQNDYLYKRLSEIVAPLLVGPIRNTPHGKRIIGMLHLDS

B1: Ic_S4_P3E.1_K3.1_C3.1_H3.1_A3.1_[T5G]_[A6C]_F3.1_[T7G]_[A8G]_T3.1 (ssRNA)
RNA: UUUGACAACUGAUCGUUCUUUCUUGUAGCGGUUCUUUCUCGAUCAGUUGUCUUU
B2: Ic_S4_P3E.1_K3.1_C3.1_H3.1_A3.1_[T5C]_[A6C]_F3.1_[A8T]_T3.1 (ssRNA)
RNA: B1 RNA with G28C, G30U, G31U
B3: Ic_S4_P3E.1_K3.1_C3.1_H3.1_A3.1_[T5G]_[A6T]_F3.1_[T7A]_[A8T]_T3.1 (ssRNA)
RNA: B1 RNA with C29U, G30A, G31U
B4: Ic_S4_P3E.1_K3.1_C3.1_H3.1_A3.1_[T5C]_[A6G]_F3.1_[T7C]_T3.1 (ssRNA)
RNA: B1 RNA with G28C, C29G, G30C, G31A
B5: Ic_S4_P3E.1_K3.1_C3.1_H3.1_A3.1_[T5C]_[A6T]_F3.1_[A8G]_T3.1 (ssRNA)
RNA: B1 RNA with G28C, C29U, G30U
B6: Ic_S4_P3E.1_K3.1_C3.1_H3.1_A3.1_[T5C]_[A6T]_F3.1_[T7G]_[A8C]_T3.1 (ssRNA)
RNA: B1 RNA with G28C, C29U, G31C
B7: Ic_S4_P3E.1_K3.1_C3.1_H3.1_A3.1_[T5C]_[A6T]_F3.1_[T7A]_T3.1 (ssRNA)
RNA: B1 RNA with G28C, C29U, G30A, G31A
B8: Ic_S4_P3E.1_K3.1_C3.1_H3.1_A3.1_[T5G]_[A6T]_F3.1_[T7G]_[A8C]_T3.1 (ssRNA)
RNA: B1 RNA with C29U, G31C
B9: Ic_S4_P3E.1_K3.1_C3.1_H3.1_A3.1_[T5C]_[A6T]_F3.1_[T7A]_[A8C]_T3.1 (ssRNA)
RNA: B1 RNA with G28C, C29U, G30A, G31C
B10: Ic_S4_P3E.1_K3.1_C3.1_H3.1_A3.1_[T5C]_[A6G]_F3.1_[T7G]_[A8C]_T3.1 (ssRNA)
RNA: B1 RNA with G28C, C29G, G31C
B11: Ic_S4_P3E.1_K3.1_C3.1_H3.1_A3.1_[T5G]_[A6C]_F3.1_[T7C]_T3.1 (ssRNA)
RNA: B1 RNA with G30C, G31A
B12: Ic_S4_P3E.1_K3.1_C3.1_H3.1_A3.1_[T5C]_[A6G]_F3.1_[T7C]_[A8G]_T3.1 (ssRNA)
RNA: B1 RNA with G28C, C29G, G30C
B13: Ic_S4_P3E.1_K3.1_C3.1_H3.1_A3.1_[T5G]_[A6T]_F3.1_[T7G]_[A8T]_T3.1 (ssRNA)
RNA: B1 RNA with C29U, G31U
B14: Ic_S4_P3E.1_K3.1_C3.1_H3.1_A3.1_[T5G]_[A6C]_F3.1_[A8C]_T3.1 (ssRNA)
RNA: B1 RNA with G30U, G31C
B15: Ic_S4_P3E.1_K3.1_C3.1_H3.1_A3.1_[T5G]_[A6C]_F3.1_[T7A]_[A8T]_T3.1 (ssRNA)
RNA: B1 RNA with G30A, G31U
B16: Ic_S4_P3E.1_K3.1_C3.1_H3.1_A3.1_[T5C]_[A6T]_F3.1_[T7C]_T3.1 (ssRNA)
RNA: B1 RNA with G28C, C29U, G30C, G31A
B17: Ic_S4_P3E.1_K3.1_C3.1_H3.1_A3.1_[T5C]_[A6C]_F3.1_[T7C]_[A8T]_T3.1 (ssRNA)
RNA: B1 RNA with G28C, G30C, G31U
B18: Ic_S4_P3E.1_K3.1_C3.1_H3.1_A3.1_[T5C]_[A6T]_F3.1_[T7C]_[A8T]_T3.1 (ssRNA)
RNA: B1 RNA with G28C, C29U, G30C, G31U
B19: Ic_S4_P3E.1_K3.1_C3.1_H3.1_A3.1_[T5C]_[A6C]_F3.1_[T7C]_T3.1 (ssRNA)
RNA: B1 RNA with G28C, G30C, G31A
B20: Ic_S4_P3E.1_K3.1_C3.1_H3.1_A3.1_[T5G]_[A6T]_F3.1_[T7A]_[A8C]_T3.1 (ssRNA)
RNA: B1 RNA with C29U, G30A, G31C
B21: Ic_S4_P3E.1_K3.1_C3.1_H3.1_A3.1_[T5C]_[A6T]_F3.1_[A8T]_T3.1 (ssRNA)
RNA: B1 RNA with G28C, C29U, G30U, G31U
B22: Ic_S4_P3E.1_K3.1_C3.1_H3.1_A3.1_[T5G]_[A6C]_F3.1_[T7C]_[A8C]_T3.1 (ssRNA)
RNA: B1 RNA with G30C, G31C
B23: Ic_S4_P3E.1_K3.1_C3.1_H3.1_A3.1_[T5G]_[A6C]_F3.1_[T7G]_[A8C]_T3.1 (ssRNA)
RNA: B1 RNA with G31C
B24: Ic_S4_P3E.1_K3.1_C3.1_H3.1_A3.1_[T5C]_[A6C]_F3.1_[T7A]_[A8T]_T3.1 (ssRNA)
RNA: B1 RNA with G28C, G30A, G31U
B25: Ic_S4_P3E.1_K3.1_C3.1_H3.1_A3.1_[T5C]_F3.1_[T7G]_[A8T]_T3.1 (ssRNA)
RNA: B1 RNA with G28C, C29A, G31U
B26: Ic_S4_P3E.1_K3.1_C3.1_H3.1_A3.1_[T5G]_[A6C]_F3.1_[T7A]_[A8C]_T3.1 (ssRNA)
RNA: B1 RNA with G30A, G31C
B27: Ic_S4_P3E.1_K3.1_C3.1_H3.1_A3.1_[T5G]_[A6C]_F3.1_[T7A]_[A8G]_T3.1 (ssRNA)
RNA: B1 RNA with G30A
B28: Ic_S4_P3E.1_K3.1_C3.1_H3.1_A3.1_[T5C]_[A6T]_F3.1_[T7C]_[A8C]_T3.1 (ssRNA)
RNA: B1 RNA with G28C, C29U, G30C, G31C

target: T1, PUF4 RNA-binding domain; assay: Mg; RNA-MaP; 20 mM Na-HEPES pH 7.4, 30 mM KOAc, 0.75 mM MgCl2, 0.1% Tween-20, 5% glycerol, 0.1 mg/mL BSA, 2 mM DTT; 25 C; 0.0125-409.6 nM protein; conditions: tags: N-His6-TEV cleaved; C-SNAP kept, Cy3B-labelled; label: tethered on chip by stalled RNA polymerase

UCUCUUUGCAUAUUGUCUCUU (ssRNA) [Ib_S1_P4E.1_K4.1_C4.1_H4.1_[T3C]_A4.1_F4.1_[A9G]_T4.1] and B1 are within 1.5-fold of each other in Kd: 1840 nM for the first, 1270 nM for the second.

Compared with B2, B3 is 3.9-fold higher in Kd: 13.4 nM for the first, 52.9 nM for the second. The first binds more tightly here.

First: B4
Second: B5
The Kd of the first is 4.3-fold higher: 444 nM for the first, 103 nM for the second.

First: B6
Second: B7
The Kd of the first is 9.5-fold higher: 442 nM for the first, 46.5 nM for the second. The second binds more tightly here.

Compared with B8, B9 is 5.6-fold lower in Kd: 506 nM for the first, 89.8 nM for the second. The second binds more tightly here.

Going from B10 to B11, the Kd falls from 1030 nM to 616 nM (1.7-fold). The second binds more tightly here.

First: B12
Second: B13
The Kd of the first is 9.1-fold higher: 908 nM for the first, 100 nM for the second. The second binds more tightly here.

Going from B14 to B15, the Kd falls from 192 nM to 35.8 nM (5.4-fold). The second binds more tightly here.

Going from B16 to B17, the Kd falls from 108 nM to 14.2 nM (7.6-fold).

Going from B18 to B19, the Kd rises from 12.3 nM to 487 nM (40-fold).

Compared with B20, B21 is 40-fold lower in Kd: 404 nM for the first, 10.1 nM for the second.

Compared with B22, B23 is 2.6-fold higher in Kd: 648 nM for the first, 1710 nM for the second.

Going from B24 to B25, the Kd rises from 5.15 nM to 15.3 nM (3-fold).

Compared with B26, B27 is 3.4-fold higher in Kd: 243 nM for the first, 836 nM for the second.

For B28, the Kd was 120 nM.
